Measured values from PMC4839367.

Biological target: Ad5D24 oncolytic adenovirus (viral particle, capsid) (human adenovirus serotype 5) (UniProt P04133)
Test: SPR

Sequence of UniProt P04133 (P04133 whole entry, looked up): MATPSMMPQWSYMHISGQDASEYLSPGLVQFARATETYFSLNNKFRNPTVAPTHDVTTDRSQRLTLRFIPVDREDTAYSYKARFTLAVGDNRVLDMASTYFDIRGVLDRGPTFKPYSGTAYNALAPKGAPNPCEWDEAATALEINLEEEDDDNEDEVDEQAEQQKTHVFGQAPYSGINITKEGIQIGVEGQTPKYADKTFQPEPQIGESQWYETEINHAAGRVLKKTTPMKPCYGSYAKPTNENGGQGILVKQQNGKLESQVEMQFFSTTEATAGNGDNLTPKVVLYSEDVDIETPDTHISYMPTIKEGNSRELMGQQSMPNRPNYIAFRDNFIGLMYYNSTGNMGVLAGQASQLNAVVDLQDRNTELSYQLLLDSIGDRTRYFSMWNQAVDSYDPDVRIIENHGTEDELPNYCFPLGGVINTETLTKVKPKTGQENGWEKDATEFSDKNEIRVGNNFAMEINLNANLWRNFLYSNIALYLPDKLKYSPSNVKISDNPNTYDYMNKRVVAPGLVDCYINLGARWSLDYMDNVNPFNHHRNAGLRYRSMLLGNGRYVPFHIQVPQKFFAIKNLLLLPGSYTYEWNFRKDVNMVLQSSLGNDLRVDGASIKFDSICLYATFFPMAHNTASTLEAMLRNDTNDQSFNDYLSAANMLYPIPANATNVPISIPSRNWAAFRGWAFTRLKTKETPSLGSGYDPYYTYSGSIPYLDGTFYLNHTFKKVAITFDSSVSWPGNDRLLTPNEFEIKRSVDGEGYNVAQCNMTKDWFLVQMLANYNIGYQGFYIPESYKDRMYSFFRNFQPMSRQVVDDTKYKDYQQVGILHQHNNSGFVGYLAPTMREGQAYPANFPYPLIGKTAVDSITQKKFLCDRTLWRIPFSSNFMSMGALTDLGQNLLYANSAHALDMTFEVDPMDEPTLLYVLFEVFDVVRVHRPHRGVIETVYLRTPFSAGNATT

Substance: polyK-SIINFEKL (peptide)
- Kd: 2880 nM
